Ends that are not written are not given here.

Experimental findings from publication PMC5433940 (Chembiochem : a European journal of chemical biology, 2016) are described below.

Experiment [1] addresses T1, p32 protein (Homo sapiens, UniProt Q07021).
T1 sequence (Q07021 74-282): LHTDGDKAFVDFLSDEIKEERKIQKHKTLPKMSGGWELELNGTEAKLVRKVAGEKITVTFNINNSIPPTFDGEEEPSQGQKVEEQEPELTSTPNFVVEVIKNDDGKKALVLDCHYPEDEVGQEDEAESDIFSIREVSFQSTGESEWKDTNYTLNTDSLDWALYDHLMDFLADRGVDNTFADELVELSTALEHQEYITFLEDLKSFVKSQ
Put plainly: Binding of peptide-displaying T7 phage clones to immobilized p32 protein. As to conditions: peptide displayed on T7 phage; compared to LyP-1 phage.

In experiment [2] the target is recombinant 6x-His-tagged p32 protein (p32/gC1qR) (UniProt Q07021). Put plainly: AUC.
The target of experiment [3] is T2, recombinant 6x-His-tagged p32 protein (p32/gC1qR) (UniProt Q07021 74-282).
T2 sequence (looked up): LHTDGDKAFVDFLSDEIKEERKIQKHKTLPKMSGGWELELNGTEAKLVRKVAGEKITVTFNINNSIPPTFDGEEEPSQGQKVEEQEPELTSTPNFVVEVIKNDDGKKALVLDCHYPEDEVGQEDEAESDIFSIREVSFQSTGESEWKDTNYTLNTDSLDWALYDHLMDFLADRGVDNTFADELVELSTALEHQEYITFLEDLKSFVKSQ
Put plainly: fluorescence polarisation. Background: Polarisation of emitted light reports the rotation of a fluorescent probe.

Regarding CKRGNRSMC, the “phage binding to p32” value in experiment [1] is recorded as “greatly improved binding to p32 compared to LyP-1 phage”.
Take “recombinant 6x-His-tagged p32 protein (p32/gC1qR) (from UniProt Q07021 74-282) (natural protein; other documents disagree on this pair)”: the stoichiometry N in experiment [2] was found to be 3.
CTRGSRSKC: the “phage binding to p32” value in experiment [1] was “greatly improved binding to p32 compared to LyP-1 phage”.
In the case of CGNKRTRGC (cysteine pairing not given here; also: FAM label, position not given here) [FAM-labeled LyP-1 peptide (CGNKRTRGC)], the dissociation constant Kd in experiment [3] is above 23 µM.

Usually stoichiometry N stands for a count of units in the complex or per binding partner. For orientation: Kd means the constant that tells how readily two partners part at equilibrium.
